Assay results: paper PMC8880771, “Therapeutic antibody activation of the glucocorticoid-induced TNF receptor by a clustering mechanism” (Science Advances, 2022)

B1: full-length mouse GITR fused to EGFP at its C terminus (mGITR_(egfp)), purified (receptor, UniProt O35714 20-228, looked up)
chain: QPSVVEEPGCGPGKVQNGSGNNTRCCSLYAPGKEDCPKERCICVTPEYHCGDPQCKICKHYPCQPGQRVESQGDIVFGFRCVACAMGTFSAGRDGHCRLWTNCSQFGFLTMFPGNKTHNAVCIPEPLPTEQYGHLTVIFLVMAACIFFLTTVQLGLHIWQLRRQHMCPRETQPFAEVQLSAEDACSFQFPEEERGEQTEEKCHLGGRWP
modifications: intersubunit disulfide bond at Cys55
notes: signal peptide in the construct; mouse GITR, full-length gene in pEZT-BM, followed by a thrombin cleavage site, EGFP and 8x His; Cys14 lies in the predicted signal peptide and is not in the mature protein; last residue P228; Disulfide-linked dimer by cryo-EM; EGFP fluorescence was monitored in FSEC; also called glucocorticoid-induced TNF receptor; source: HEK293S GnTI- suspension cells (BacMam), …

Experiments:
[1] = target: the molecule itself; experiment: non-reducing SDS-PAGE with anti-1D4 Western blot; lysate, nonreduced (-DTT); denaturing SDS-PAGE, shows only covalent dimers
[2] = target: B1; experiment: SEC; FSEC of purified proteins mixed with mGITR_(egfp), EGFP fluorescence (tryptophan fluorescence as control), Superose 6 Increase 10/300 GL, 20 mM tris pH 8.0, 300 mM NaCl, 0.5 mM DDM; molar ratio 1:15:4:2 for mGITR_(egfp):mGITRL:Fab:IgG; conditions: both partners purified
[3] = target: the molecule itself; experiment: cryo-EM structure; mGITR_(egfp)/DTA-1 Fab complex in DDM, single-particle cryo-EM, global resolution 4.4 Å

Row | Binder | stoichiometry N [1] | other results
1 | mGITR_(ΔCTD-egfp) (domain or fragment, mouse, UniProt O35714 20-185, looked up, signal peptide in the construct; mouse GITR without the unstructured C-terminal residues C186-P228; also called CTD deletion construct; source: HEK293 cells, solubilized with DDM, in lysate; not shown: EGFP, C-terminal, kept; 1D4, C-terminal, kept) QPSVVEEPGCGPGKVQNGSGNNTRCCSLYAPGKEDCPKERCICVTPEYHCGDPQCKICKHYPCQPGQRVESQGDIVFGFRCVACAMGTFSAGRDGHCRLWTNCSQFGFLTMFPGNKTHNAVCIPEPLPTEQYGHLTVIFLVMAACIFFLTTVQLGLHIWQLRRQHM | 2 | –
2 | mGITR_(ΔCTD-egfp)-C164A (domain or fragment, mouse, UniProt O35714 20-185, looked up, signal peptide in the construct; mouse GITR without the C-terminal residues C186-P228, with C164A; also called C164A mutant; source: HEK293 cells, solubilized with DDM, in lysate; not shown: EGFP, C-terminal, kept; 1D4, C-terminal, kept) QPSVVEEPGCGPGKVQNGSGNNTRCCSLYAPGKEDCPKERCICVTPEYHCGDPQCKICKHYPCQPGQRVESQGDIVFGFRCVACAMGTFSAGRDGHCRLWTNCSQFGFLTMFPGNKTHNAVCIPEPLPTEQYGHLTVIFLVMAAAIFFLTTVQLGLHIWQLRRQHM | 2 | –
3 | full-length mouse GITR ligand (mGITRL) (ligand, UniProt Q7TS55 1-173, looked up, mouse GITRL, full-length gene with transmembrane region, in pEZT-BM; the oligomeric state of the full-length protein was not measured here; source: HEK293S GnTI- suspension cells (BacMam), solubilized in DDM, purified (StrepTrap HP, Superose 6)) MEEMPLRESSPQRAERCKKSWLLCIVALLLMLLCSLGTLIYTSLKPTAIESCMVKFELSSSKWHMTSPKPHCVNTTSDGKLKILQSGTYLIYGQVIPVDKKYIKDNAPFVVQIYKKNDVLQTLMNDFQILPIGGVYELHAGDNIYLKFNSKDHIQKTNTYWGIILMPDLPFIS | – | binding result [2]: binds
4 | B1 | – | stoichiometry N [3]: 2
5 | full-length mGITR_(egfp) with C-terminal 1D4 tag, in HEK293 lysate (receptor, mouse, UniProt O35714 20-228, looked up, intersubunit disulfide bond at Cys55, signal peptide in the construct; mouse GITR, full length (to P228), followed by EGFP and a 1D4 tag; May be the same construct as m1; the methods name an 8x His tag for the purified protein, the results a 1D4 tag for all constructs analysed in lysate; source: HEK293 cells, solubilized with DDM, in lysate; not shown: EGFP, C-terminal, kept; 1D4, C-terminal, kept) QPSVVEEPGCGPGKVQNGSGNNTRCCSLYAPGKEDCPKERCICVTPEYHCGDPQCKICKHYPCQPGQRVESQGDIVFGFRCVACAMGTFSAGRDGHCRLWTNCSQFGFLTMFPGNKTHNAVCIPEPLPTEQYGHLTVIFLVMAACIFFLTTVQLGLHIWQLRRQHMCPRETQPFAEVQLSAEDACSFQFPEEERGEQTEEKCHLGGRWP | 2 | –
